Measurements reported in patent US20060234942 (published 2006).

T1: angiotensin I converting enzyme (ACE) (UniProt P12821)
T1 chain: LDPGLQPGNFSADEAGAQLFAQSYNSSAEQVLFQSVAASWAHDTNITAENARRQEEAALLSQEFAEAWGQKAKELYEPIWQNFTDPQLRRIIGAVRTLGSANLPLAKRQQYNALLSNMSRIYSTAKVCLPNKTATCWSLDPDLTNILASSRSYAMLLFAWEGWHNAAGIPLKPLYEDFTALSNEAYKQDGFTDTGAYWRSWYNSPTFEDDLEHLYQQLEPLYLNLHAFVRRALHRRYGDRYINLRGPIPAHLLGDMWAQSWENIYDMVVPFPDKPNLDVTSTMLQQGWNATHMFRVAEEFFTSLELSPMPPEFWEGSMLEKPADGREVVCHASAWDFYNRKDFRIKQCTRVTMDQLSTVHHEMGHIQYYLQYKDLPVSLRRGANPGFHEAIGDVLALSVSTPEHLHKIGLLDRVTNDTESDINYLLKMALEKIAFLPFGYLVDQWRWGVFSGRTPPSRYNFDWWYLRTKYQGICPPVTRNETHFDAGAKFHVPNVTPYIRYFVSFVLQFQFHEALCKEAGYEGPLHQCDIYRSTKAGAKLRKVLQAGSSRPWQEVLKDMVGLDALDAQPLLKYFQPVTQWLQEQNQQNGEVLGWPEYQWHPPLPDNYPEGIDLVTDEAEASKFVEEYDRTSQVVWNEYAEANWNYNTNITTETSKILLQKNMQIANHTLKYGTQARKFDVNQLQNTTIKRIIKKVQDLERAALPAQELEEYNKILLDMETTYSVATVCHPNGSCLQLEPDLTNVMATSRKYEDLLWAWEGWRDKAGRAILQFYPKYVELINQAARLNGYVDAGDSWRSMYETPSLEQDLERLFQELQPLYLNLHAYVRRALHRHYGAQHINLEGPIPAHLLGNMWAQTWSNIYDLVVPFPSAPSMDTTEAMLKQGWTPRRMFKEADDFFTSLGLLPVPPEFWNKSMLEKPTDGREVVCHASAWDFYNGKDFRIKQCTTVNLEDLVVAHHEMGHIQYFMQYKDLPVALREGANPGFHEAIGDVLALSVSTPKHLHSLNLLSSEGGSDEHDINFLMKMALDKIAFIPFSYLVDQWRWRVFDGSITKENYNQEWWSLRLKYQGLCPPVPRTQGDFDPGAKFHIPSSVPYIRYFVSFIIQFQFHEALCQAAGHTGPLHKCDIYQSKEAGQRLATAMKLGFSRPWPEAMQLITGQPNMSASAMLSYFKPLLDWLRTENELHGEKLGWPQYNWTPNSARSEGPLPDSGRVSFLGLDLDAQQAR


Target: T1, angiotensin I converting enzyme (ACE)
Assay: other, ACE inhibition

| Binder | IC50 |
| --- | --- |
| FALPQYLK [FALPQYLK (CNαS2-(f174-181))] | 4.3 µM |
| TVY [TVY (CNαS2-(f182-184))] | 15 µM |
| NMAINPSK [NMAINPSK (CNαS2-(f25-32))] | 60 µM |
| ALNEINQFY [ALNEINQFY (CNαS2-(f81-89))] | 219 µM |
| ALNEINQFYQK [ALNEINQFYQK (CNαS2-(f81-91))] | 26.4 µM |
| FPQYLQY [FPQYLQY (CNαS2-(f92-98))] | 14 µM |
| FALPQY [FALPQY (CNαS2-(f174-179))] | 4.3 µM |
